From PMC3315798 (Molecular Biology of the Cell, 2012)

T1: Fus2p-FLAG (full-length Fus2p, internally FLAG-epitope tagged at residue 104) (S. cerevisiae, UniProt Q05670 1-677)
T1 sequence (looked up): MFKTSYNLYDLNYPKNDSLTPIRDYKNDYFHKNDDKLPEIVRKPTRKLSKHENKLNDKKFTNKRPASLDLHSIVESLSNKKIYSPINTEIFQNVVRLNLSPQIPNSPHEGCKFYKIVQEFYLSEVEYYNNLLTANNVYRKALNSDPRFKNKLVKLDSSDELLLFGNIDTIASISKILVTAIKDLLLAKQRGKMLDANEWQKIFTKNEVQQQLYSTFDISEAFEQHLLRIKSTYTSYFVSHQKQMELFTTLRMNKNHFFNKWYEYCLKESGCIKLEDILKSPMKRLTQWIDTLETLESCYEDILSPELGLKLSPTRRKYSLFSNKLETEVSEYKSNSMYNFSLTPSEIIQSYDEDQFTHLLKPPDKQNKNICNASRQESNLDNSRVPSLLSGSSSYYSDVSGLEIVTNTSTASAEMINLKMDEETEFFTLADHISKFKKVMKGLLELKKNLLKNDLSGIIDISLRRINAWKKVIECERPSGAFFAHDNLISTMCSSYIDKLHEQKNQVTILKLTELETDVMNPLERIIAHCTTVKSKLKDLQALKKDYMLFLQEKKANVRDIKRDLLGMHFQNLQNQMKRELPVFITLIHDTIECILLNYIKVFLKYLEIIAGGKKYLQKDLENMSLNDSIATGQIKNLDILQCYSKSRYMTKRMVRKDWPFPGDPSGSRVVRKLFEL


Biological target: T1, Fus2p-FLAG (full-length Fus2p, …)
Assay: co-IP

% binding relative to wild-type Cdc42p (so in the source) [%]	fold level bound compared with Cdc42p-T17N or wild type [fold]	Binder
4	–	GST-Cdc42p (Q61L, D122A) (natural protein) not shown
7	–	GST-Cdc42p (V36M, Q61L) (natural protein) not shown
–	~20	GST-Cdc42p-Q61L (GTP-locked mutant) (natural protein) not shown
